Measured values: publication PMC3467076

Target: T1, SNI1 (Arabidopsis thaliana, UniProt Q9SWA6 1-432)
T1 sequence: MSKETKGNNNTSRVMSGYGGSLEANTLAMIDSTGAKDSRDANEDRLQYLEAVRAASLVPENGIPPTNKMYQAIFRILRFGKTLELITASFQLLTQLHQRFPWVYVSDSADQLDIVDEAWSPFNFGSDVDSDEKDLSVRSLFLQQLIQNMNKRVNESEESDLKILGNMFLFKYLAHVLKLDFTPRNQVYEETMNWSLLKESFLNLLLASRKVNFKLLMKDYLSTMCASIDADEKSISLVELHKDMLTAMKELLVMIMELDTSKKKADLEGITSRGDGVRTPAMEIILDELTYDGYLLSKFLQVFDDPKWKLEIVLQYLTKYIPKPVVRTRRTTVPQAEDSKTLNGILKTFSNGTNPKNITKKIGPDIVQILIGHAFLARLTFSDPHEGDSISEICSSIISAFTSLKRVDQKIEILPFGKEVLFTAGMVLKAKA
Test: EMSA

B1: E0-1-1 (dsDNA)
DNA 1: TAATAATGCTTAGTTATAAATTACT
DNA 2: AGTAATTTATAACTAAGCATTATTA
- binding result: no binding
